In the test the target is intelectin-2 (Xenopus laevis (endogenous in egg extract)). The test can be described thus: cryo-EM structure.

In PMC8571072 one finds stoichiometry N data, which are given here for one substance.

As usually defined, the stoichiometry N is a count of units in the complex or per binding partner.

“And” between values parts separate entries of the source, which are not always exact repeats. Identical values can stand only once.

For intelectin-2 (natural protein), the stoichiometry N was 3 and 6.
